Where a chain is given by its changes, count along the chain named. Blank lines part the entries; values can stand above or below the binder they belong to.
Tests used:
Experiment in all cases: cell-based or functional assay
rat NPR-B = biological target: T1, rat NPR-B (rat, UniProt P16067 17-1047)
T1 sequence (looked up): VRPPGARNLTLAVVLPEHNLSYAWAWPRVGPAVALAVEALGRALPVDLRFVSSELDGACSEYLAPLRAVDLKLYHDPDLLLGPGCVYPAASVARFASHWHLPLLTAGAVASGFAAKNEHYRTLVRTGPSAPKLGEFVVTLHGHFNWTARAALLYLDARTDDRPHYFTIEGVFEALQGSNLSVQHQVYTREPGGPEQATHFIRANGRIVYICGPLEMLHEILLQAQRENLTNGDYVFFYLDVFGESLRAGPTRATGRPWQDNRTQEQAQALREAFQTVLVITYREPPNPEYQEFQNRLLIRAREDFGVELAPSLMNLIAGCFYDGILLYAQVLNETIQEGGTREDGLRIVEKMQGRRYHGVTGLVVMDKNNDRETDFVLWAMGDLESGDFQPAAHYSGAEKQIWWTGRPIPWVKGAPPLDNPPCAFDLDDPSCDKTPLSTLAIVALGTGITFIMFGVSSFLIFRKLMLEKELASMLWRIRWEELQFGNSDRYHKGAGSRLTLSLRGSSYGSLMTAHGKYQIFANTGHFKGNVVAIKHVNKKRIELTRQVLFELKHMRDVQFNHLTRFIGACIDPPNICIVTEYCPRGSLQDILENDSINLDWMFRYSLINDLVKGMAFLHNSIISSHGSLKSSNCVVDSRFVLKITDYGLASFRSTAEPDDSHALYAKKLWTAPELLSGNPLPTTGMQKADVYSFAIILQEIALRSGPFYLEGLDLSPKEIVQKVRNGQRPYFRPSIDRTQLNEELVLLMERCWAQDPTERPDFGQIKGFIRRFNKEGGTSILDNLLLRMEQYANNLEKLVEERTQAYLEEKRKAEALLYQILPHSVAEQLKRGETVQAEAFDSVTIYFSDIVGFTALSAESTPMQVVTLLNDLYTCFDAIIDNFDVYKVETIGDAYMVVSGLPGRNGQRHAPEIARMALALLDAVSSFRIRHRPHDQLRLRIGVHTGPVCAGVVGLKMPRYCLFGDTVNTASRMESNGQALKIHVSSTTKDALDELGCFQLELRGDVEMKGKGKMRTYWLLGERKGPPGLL

rat NPR-A = biological target: T2, rat NPR-A (rat, UniProt P18910 29-1057)
T2 sequence (looked up): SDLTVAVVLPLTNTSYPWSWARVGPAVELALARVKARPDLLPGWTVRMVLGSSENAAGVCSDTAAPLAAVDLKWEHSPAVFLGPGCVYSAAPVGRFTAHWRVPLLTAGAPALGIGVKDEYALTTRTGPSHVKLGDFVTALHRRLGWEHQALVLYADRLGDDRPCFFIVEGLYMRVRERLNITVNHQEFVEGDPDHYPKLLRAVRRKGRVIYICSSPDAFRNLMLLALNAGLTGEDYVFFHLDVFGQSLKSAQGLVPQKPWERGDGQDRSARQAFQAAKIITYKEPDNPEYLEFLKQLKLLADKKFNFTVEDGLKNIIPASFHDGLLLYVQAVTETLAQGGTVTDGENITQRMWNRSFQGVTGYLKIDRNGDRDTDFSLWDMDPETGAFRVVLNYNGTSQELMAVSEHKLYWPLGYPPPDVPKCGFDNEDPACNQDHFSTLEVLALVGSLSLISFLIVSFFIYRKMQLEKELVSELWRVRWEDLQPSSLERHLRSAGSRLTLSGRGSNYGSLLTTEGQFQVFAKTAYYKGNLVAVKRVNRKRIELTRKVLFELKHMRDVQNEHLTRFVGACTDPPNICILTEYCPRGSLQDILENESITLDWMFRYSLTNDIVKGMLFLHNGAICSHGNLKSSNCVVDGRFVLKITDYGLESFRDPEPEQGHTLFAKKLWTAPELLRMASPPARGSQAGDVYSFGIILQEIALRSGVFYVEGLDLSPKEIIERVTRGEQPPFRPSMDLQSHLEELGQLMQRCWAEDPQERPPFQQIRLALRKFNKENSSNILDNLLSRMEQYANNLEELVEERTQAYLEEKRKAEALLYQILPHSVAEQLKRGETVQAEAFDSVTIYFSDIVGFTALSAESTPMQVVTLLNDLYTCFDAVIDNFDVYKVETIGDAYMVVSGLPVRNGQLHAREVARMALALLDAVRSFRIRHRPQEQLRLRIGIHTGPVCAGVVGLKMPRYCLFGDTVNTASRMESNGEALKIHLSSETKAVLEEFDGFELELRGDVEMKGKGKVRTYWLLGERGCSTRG

human NPRA (hNPRA) = biological target: T3, human NPRA (hNPRA) (human, UniProt P16066 33-1061)
T3 sequence (looked up): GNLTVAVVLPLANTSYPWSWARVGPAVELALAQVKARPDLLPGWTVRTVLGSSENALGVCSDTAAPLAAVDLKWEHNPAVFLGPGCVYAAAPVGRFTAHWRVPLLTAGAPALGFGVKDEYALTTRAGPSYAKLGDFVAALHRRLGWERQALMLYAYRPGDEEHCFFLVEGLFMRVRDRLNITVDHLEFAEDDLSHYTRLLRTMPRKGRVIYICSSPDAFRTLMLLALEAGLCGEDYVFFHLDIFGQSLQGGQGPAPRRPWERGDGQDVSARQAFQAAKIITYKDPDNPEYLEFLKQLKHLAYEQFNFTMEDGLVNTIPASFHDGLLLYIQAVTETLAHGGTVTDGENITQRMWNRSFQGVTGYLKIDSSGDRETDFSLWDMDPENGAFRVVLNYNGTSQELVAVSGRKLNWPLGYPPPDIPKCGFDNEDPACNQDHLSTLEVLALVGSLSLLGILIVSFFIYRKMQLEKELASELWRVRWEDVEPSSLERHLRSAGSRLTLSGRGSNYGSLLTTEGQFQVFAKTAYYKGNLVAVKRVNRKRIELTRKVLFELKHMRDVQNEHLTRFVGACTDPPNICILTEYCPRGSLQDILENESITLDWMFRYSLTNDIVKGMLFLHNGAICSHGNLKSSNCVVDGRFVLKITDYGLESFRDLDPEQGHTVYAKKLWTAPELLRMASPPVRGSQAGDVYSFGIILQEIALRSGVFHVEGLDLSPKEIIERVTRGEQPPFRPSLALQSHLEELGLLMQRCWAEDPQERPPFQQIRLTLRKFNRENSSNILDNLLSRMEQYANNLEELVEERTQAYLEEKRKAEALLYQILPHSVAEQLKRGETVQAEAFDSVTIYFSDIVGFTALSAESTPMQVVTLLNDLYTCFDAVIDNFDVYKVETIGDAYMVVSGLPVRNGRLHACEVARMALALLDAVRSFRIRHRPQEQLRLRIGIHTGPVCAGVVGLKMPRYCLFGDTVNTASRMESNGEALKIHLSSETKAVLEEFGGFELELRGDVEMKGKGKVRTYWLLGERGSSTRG

EC50, luminescence signal of rat NPR-B reporter cells (rat NPR-B): 4.1 nM
B1: TPP-12377 (antibody)
heavy: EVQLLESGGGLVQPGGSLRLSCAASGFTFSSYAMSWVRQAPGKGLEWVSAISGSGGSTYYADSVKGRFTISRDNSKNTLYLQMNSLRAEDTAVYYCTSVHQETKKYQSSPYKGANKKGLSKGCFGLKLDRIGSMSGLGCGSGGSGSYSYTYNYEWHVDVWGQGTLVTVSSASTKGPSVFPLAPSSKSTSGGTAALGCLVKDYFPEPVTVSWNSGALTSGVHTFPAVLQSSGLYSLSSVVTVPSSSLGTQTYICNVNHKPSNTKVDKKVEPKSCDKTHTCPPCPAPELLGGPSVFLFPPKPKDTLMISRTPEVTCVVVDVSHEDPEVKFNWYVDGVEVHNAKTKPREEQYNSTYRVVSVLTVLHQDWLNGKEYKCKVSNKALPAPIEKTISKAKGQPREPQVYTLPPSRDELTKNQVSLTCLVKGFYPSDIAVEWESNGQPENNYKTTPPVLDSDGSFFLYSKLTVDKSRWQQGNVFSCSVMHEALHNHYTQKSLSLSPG
light: QSVLTQPPSVSGAPGQRVTISCTGSSSNIGAGYDVHWYQQLPGTAPKLLIYGNSNRPSGVPDRFSGSKSGTSASLAITGLQAEDEADYYCQSYDSSLSGVVFGGGTKLTVLGQPKAAPSVTLFPPSSEELQANKATLVCLISDFYPGAVTVAWKADSSPVKAGVETTTPSKQSNNKYAASSYLSLTPEQWKSHRSYSCQVTHEGSTVEKTVAPTECS

EC50, fluorescence signal of rat NPR-A / CNGA2 (cGMP biosensor) / GCaMP6 CHO reporter cells (rat NPR-A): 17 nM | logEC50, cGMP quantification assay (HTRF), stable hNPRA-CHO k1 cells, isolated compound sample (human NPRA (hNPRA)): -8.8 | logEC50, cGMP quantification assay (HTRF), stable hNPRA-CHO k1 cells, purified compound sample, average of experiments (human NPRA (hNPRA)): -9.2 | logEC50, cGMP quantification assay (HTRF), transient hNPRA-HEK293 cells, purified compound sample, average of three experiments (human NPRA (hNPRA)): -9
B2: TPP-5661 (antibody)
heavy: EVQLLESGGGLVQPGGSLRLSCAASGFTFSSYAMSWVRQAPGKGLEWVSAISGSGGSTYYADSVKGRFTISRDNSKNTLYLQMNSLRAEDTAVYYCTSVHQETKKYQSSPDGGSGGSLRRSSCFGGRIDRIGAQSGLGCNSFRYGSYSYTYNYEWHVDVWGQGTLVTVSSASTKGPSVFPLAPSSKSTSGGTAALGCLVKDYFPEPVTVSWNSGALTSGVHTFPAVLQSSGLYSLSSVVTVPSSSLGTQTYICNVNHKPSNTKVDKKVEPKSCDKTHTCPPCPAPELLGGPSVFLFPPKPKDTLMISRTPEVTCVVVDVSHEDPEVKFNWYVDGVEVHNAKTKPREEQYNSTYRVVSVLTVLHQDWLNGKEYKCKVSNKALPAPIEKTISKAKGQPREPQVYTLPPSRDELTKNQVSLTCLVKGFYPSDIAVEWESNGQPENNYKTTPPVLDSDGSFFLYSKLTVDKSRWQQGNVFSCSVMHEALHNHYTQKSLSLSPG
light: B1 light

EC50, luminescence signal of rat NPR-B reporter cells (rat NPR-B): 10 nM
B3: TPP-12897 (antibody)
heavy: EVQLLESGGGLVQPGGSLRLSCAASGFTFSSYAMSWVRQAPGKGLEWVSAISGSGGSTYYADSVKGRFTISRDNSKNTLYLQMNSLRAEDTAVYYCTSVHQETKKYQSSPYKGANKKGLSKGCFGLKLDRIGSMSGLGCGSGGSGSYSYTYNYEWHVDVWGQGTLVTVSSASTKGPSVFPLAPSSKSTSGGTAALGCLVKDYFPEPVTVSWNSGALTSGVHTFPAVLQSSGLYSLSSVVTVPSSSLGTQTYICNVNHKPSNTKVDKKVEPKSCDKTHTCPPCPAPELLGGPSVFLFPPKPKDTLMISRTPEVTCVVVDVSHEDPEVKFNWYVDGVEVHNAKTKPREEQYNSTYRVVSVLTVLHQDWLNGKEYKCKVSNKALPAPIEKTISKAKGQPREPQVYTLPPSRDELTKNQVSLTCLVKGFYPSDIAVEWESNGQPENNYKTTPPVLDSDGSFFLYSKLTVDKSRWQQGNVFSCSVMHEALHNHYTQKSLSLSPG
light: B1 light with S98D

From patent publication US20250361282A1 (Bayer, published 2025)
